The record followed here is patent US20180200383A1.

For the assay, the target named is human folate receptor 1 (FOLR1) (human) (UniProt P15328). Kind of assay: cell-based or functional assay.
Chain of human folate receptor 1 (FOLR1) (human) (P15328 25-234 limits assumed, form in doubt): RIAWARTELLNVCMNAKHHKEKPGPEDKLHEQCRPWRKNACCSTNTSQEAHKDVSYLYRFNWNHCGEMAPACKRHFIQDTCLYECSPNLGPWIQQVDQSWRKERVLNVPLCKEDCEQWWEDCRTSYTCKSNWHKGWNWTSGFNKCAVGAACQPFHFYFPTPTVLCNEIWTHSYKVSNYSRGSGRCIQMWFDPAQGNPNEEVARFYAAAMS

B1: IMGN853 (immunoconjugate of antibody huMov19, sulfo-SPDB and DM4) (antibody, from a related filing, V domains shown, part only)
VH: QVQLVQSGAEVVKPGASVKISCKASGYTFTGYFMNWVKQSPGQSLEWIGRIHPYDGDTFYNQKFQGKATLTVDKSSNTAHMELLSLTSEDFAVYYCTRYDGSRAMDYWGQGTTVTVSS
VL: DIVLTQSPLSLAVSLGQPAIISCKASQSVSFAGTSLMHWYHQKPGQQPRLLIYRASNLEAGVPDRFSGSGSKTDFTLTISPVEAEDAATYYCQQSREYPYTFGGGTKLEIKR
In turn, B1 yielded an IC50 of cytotoxicity on Jeg-3 cells (5 days, WST-8) of 1 nM.
